From patent US7943358B2, “Polymerase enhancing factor (PEF) extracts, PEF protein complexes, isolated PEF protein, and methods for purifying and identifying” (Agilent Technologies, Inc., priority 1997, dated 2011)

Test system: gapped-duplex calf thymus DNA
Experiment: DNA polymerase activity, gapped-duplex calf thymus DNA assay
Format: biochemical
Method: Initially and as a control to confirm the activity of the DNA polymerase used, gapped-duplex calf thymus DNA (Pharmacia) assays were performed. The polymerase cocktail contained 50 mM Tris-HCl, pH 8.0, 5 mM MgCl2, 1 mM DTT, 50 μg/m BSA, 4% glycerol, 200 μM each dNTP, [^3H]TTP (0.5 mCi·μmole final concentration), and 250 μg/ml of activated calf thymus DNA (Pharmacia). Samples containing Pfu DNA polymerase or P. furiosus PEF were serially diluted in Pfu DNA polymerase storage buffer (50 mM Tris-HCl, pH 8.2, 0.1% NP-40, 0.1% Tween-20, 0.1 mM EDTA, 1 mM DTT, 50% glycerol) and then 1 μl of each dilution was added to 10 μl aliquots of polymerase cocktail. Polymerization reactions were conducted in triplicate for 30 minutes at 72° C. The extension reactions were quenched on ice, and then 5 μl aliquots were spotted immediately onto DE81 filters (Whatman). Unincorporated [^3H]TTP was removed by 6 washes with 2×SCC (0.3M NaCl, 30 mM sodium citrate, pH 7.0), followed by one wash with 100% ethanol. Incorporated radioactivity was measured by scintillation counting. The assay was calibrated by counting a known amount of [^3H]TTP on DE-81 filters, omitting the wash steps. One unit of polymerase activity is defined as the amount of enzyme which catalyzes the incorporation of 10 nmoles of total dNTP into polymeric form (binds to DE-81 paper) in 30 minutes at 72° C. […]

B1: PEF: polymerase enhancing factor complex purified from Pyrococcus furiosus; predominant components P50 and P45 (protein)
chain 1: MLHHVKLIYATKSRKLVGKKIVXXXPGSIAALDVKACEGLIRHGAEVHAVMSEAATKIIHPYAWNLPTGNPVITEITGFIEHVELAGEHENKADLILVCPATANTISKIACGIDDTPVTTVVTTAFPHIPIMIAPAMHETMYRHPIVRENIERLKKLGVEFIGPRIEEGRAKVASIDEIVYRVIKKLHKKTLEGKRVLVTAGATREYIDPIRFITNASSGKMGVALAEEADFRGAVTLIRTKGSVKAFRIRKIKLKVETVEEMLSAIENELRSKKYDVVIMAAAVSDFRPKIKAEGKIKSGRSITIELVPXNPKIIDRIKEIQPNVFLVGFKAETSKEKLIEEGKRQIERAKADLVVGNTLEAFGSEENQVVLIGRDFTKELPKMKKRELAERIWDEIEKXLS
chain 2: MLLPDWKIRKEILIEPFSEESLQPAGYDLRVGREAFVKGKLIDVEKEGKVVIPPREYALILTLERIKLPDDVMGDMKIRSSLAREGVIGSFAWVDPGWDGNLTLMLYNASNEPVELRYGERFVQIAFIRLEGPARNPYRGNYQGSTRLAFSKRKKL
modifications: not fully specified; X: residue not identified in the source
notes: polymerase enhancing factor complex purified from Pyrococcus furiosus; predominant components P50 and P45
  DNA polymerase activity (in words): no significant DNA polymerase activity
